The text below walks through data of patent US20090214495A1 (published 2009).

The assay has as its target T1, VEGFR-3 expressed in primary human osteoblasts (human, UniProt P35916 25-1363).
T1 construct: whole, on cells; Endogenous receptor of the cells; also called vascular endothelial growth factor receptor-3
The assay can be described thus: receptor auto-phosphorylation in primary human osteoblasts treated with 25 ng/ml VEGF-D. As for the experimental part:
Moreover osteoblasts were treated with VEGF-D and the whole cell lisates were immunoprecipitated with an antibody recognizing VEGFR-3 C-terminus (Santa Cruz Biotechnology) and immunoblotted with anti-phosphotyrosine antibodies (Santa Cruz Biotechnology).
Cells were stimulated for 30 min with 25 ng/ml VEGF-D at 37° C., washed with ice-cold PBS containing 0.1 mM Na₃VO₄, and lysed in 1 ml of lysis buffer (50 mM Hepes, pH 7.4, 150 mM NaCl, 1% Triton-X 100, 1.5 mM MgCl₂, 1 mM EGTA, 10 mM NaH₂PO₄, 100 mM NaF, 10 mM DTT, 1 mM Na₃VO₄, protease inhibitors, Sigma Chemical). Cells lysates were incubated on ice for 10 min, centrifuged at 10,000×g for 15 min, and the supernatants were incubated with anti-VEGFR-3 antibodies.

T1 sequence (P35916 25-1363): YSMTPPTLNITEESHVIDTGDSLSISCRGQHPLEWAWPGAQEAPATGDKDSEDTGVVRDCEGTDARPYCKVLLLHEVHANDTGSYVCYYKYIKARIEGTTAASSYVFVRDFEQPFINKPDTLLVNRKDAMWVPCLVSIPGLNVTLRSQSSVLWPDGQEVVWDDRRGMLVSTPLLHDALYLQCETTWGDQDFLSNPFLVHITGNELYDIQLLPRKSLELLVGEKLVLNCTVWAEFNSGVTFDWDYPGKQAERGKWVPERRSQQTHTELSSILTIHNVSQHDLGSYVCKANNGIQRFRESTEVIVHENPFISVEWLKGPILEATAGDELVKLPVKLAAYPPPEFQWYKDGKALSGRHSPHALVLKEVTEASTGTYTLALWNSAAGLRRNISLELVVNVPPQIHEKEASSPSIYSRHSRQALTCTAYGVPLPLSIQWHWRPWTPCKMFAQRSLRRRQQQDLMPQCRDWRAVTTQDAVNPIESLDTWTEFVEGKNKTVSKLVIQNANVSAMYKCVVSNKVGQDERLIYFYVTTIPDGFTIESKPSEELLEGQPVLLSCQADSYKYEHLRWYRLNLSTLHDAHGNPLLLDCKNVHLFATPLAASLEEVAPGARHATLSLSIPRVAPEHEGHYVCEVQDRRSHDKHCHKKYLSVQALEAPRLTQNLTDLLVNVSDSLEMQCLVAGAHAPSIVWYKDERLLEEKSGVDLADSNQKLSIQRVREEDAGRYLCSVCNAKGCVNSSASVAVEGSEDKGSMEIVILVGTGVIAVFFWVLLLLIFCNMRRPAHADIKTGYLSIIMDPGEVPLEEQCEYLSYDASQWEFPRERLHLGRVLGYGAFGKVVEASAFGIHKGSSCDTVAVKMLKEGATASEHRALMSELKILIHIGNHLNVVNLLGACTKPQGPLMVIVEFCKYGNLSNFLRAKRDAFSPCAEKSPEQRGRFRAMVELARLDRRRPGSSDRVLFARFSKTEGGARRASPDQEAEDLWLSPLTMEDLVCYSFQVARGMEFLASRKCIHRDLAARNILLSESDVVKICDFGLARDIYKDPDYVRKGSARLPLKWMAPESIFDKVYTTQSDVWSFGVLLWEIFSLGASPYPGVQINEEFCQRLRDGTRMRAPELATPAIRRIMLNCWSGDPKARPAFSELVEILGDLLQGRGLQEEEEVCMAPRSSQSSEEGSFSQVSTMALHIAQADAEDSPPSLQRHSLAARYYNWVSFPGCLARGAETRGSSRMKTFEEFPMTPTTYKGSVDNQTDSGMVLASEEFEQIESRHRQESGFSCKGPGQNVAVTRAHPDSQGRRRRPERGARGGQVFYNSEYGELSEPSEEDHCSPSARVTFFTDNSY

B1: recombinant human VEGF-D fragment (amino acids 90 to 203), non covalent dimer, expressed in E. coli (ligand, UniProt O43915 90-203, looked up)
chain: AATFYDIETLKVIDEEWQRTQCSPRETCVEVASELGKSTNTFFKPPCVNVFRCGGCCNEESLICMNTSTSYISKQLFEISVPLTSVPELVPVKVANHTGCKCLPTAPRHPYSII
notes: range 90-203; this protein was used for the osteoblast experiments; also called recombinant VEGF-D; VEGF-D fragment comprising aa 93-203; not shown: tag from vector pET-22b used for Ni2+ IMAC / His-TRAP purification
As for B1, the binding result is listed as “binds”.
